Reference: PMC9352529

Legend:
[1] = target: human GABAA receptor α1 subunit (HEK293T cells stably expressing α1β2γ2) (human); assay: co-IP; HEK293T cells stably expressing α1β2γ2 GABAA receptors, treated with non-targeting siRNA or siRNAs against both EMC3 and EMC6 for 48 h; lysate incubated with anti-α1 antibody; blot for SEC61α and α1
[2] = target: FLAG-tagged EMC6 N22A (human) (human) (UniProt Q9BV81); assay: co-IP; HEK293T cells stably expressing α1β2γ2 GABAA receptors, transiently transfected with FLAG-tagged EMC3 variants, or with FLAG-tagged EMC5 and EMC6 variants; lysate (50 mM Tris pH 7.5, 150 mM NaCl, 2 mM DDM) on anti-FLAG M2 magnetic beads overnight at 4°C; blot for α1 and FLAG; band intensity of α1 over FLAG
[3] = target: FLAG-tagged EMC3 R31A (human) (human) (UniProt Q9P0I2); assay: as above
[4] = target: FLAG-tagged EMC6 D27A (human) (human) (UniProt Q9BV81); assay: as above
[5] = target: FLAG-tagged EMC3 R180A (human) (human) (UniProt Q9P0I2); assay: as above

Question: “SEC61α (endogenous, HEK293T) (from UniProt P61619 1-476) (natural protein)” was tested. Which normalized SEC61α over α1 intensity after IP, knock-down of both EMC3 and EMC6 against non-targeting siRNA [1] did it give?
Answer: The normalized SEC61α over α1 intensity after IP, knock-down of both EMC3 and EMC6 against non-targeting siRNA was 5.3 fold.

Question: What does the source list for “human GABAA receptor α1 subunit (HEK293T cells stably expressing α1β2γ2) (natural protein)”?
Answer: α1 band intensity over FLAG-tagged EMC6 after IP, relative to WT EMC6 (relative to WT EMC6) [2]: 0.55; normalized α1 intensity over FLAG after IP, relative to WT EMC3 (relative to WT EMC3) [3]: 0.48; α1 band intensity over FLAG-tagged EMC6 after IP, relative to WT EMC6 (relative to WT EMC6) [4]: 0.72; normalized α1 intensity over FLAG after IP, relative to WT EMC3 (relative to WT EMC3) [5]: 0.4
